Assay: soluble on expression in E. coli; label from the status in PepcDB or PDB records

Sequence	soluble on expression in E. coli
MPTVSVKWQKKVLDGIEIDVSLPPYVFKAQLYDLTGVPPERQKIMVKGGLLKDDGDWAAIGVKDGQKLMMMGTADEIVKAPEKAIVFAEDLPEEALATNLGYSAGLVNLGNTCYMNSTVQCLKSVPELKSALSNYSLAARSNDVDQTSHMLTVATRELFGELDRSVLRKKYPQFSQLQNGMHMQQDAEECWTQLLYTLSQSLKAPTSSEGADAVKALFGVNLQSRIKLGVLDNVTDSTVISKCTLHCQESGEESSETESVYSLKCHISHEVNHLHEGLKHGLKGELEKTSPALGRTALYVKESLIDSLPRYLTVQFVRFFWKRESNQKAKILRKVDYPLVLDIFDLCSEDLRKKLEAPRQKLREEEGKKLGLQTSAKSGSKDSDVKMTDAEASANGSGESSTVNPQEGTSSEKETHMTGIYDLVAVLTHKGRSADSGHYVAWVKQESGKWIQYDDDNPSMQREEDITKLSGGGDWHMAYITMYKARFVSM	soluble
MPTYKLTYFNSRFYAEPARILFHLAGVPFEDIRIIHGDGTWEQIKDKTPFGQVPVLNINGFEIPQSTAIIRYLATKFGYAGKTPEEQAWADAICDQVRDFMAVPFKDIVVAKRVGKTEEEVSQLINEGFVPGRDAYFKIITRILEKNKSGFLVGDGITFADIVVVENLTTLQKNQLFEASKYPELAALREKVYAIPAIKKWVEARPDTQY	not soluble
MPVRASIEPLTWENAFFGVNSAIVRITSEAPLLTPDALAPWSRVQAKIAASNTGELDALQQLGFSLVEGEVDLALPVNNVSDSGAVVAQETDIPALRQLASAAFAQSRFRAPWYAPDASGRFYAQWIENAVRGTFDHQCLILRAASGDIRGYVSLRELNATDARIGLLAGRGAGAELMQTALNWAYARGKTTLRVATQMGNTAALKRYIQSGANVESTAYWLYR	soluble
MPVSGYLRIKGKRVGVEIFPFQAYHSQIKEVRQQVGNMAILPLRTQVRGPAPSANIESDIIDESLYYFKANVFFRTYEIKSDVDRVLIYVTLYITECLKKLNRSTSKAQGQQDMYSLAISKFDIPGDAGFPLNAVYAKPQTAQDADLMRQYLLQLRHETGNRVLEKVFNTEDGKPNKWWTCFAKKKFMEKSLAGPGQLEHHHHHH	not soluble
MPVSNEIWQLLSRLAEDIRPIGVNISAGEPNRLWTEAKWRALLERFPGERFVVLSGPDDLDAKRRLEEQCPNAVASPPTRNLYEASCIVAKLRLLVTPDTSMVHVASATGTPVAGLYREAPQDISRFGPYAIPYEIVISPTGEVSGIKPESVADAVRRLMARAIGREALEHHHHHH	not soluble
MPVTRPAKINTYTRIIDASLALFNEEGERNISTNHIAAHLGISPGNLYYHFRNKDEIIVQLFKRYSEALLAYLNEAVLPSDVEDSINYMAGIYDVMWEYRFLFSDVNTLLARSAELLGEHNTFTQAKVSPLLVNLLTQLNGLNIIQADQTAMNDLAVNMWMVTKYWFDFDSSLRGRTKLTEDSKARGIRRTLSLLRPYLLPEHRKKYDRKIGNGNP	soluble
MPWRTALKVALAAGEAVAKALTRAVRDEIKQTQQAAARHAASTGQSASETRENANSNAKLGISLEESLQILNVKTPLNREEVEKHYEHLFNINDKSKGGTLYLQSKVFRAKERIDEEFGRIELKEEKKKEENAKTE	not soluble
MPYDFYTDGSALGNGQQGSRGGYGVHVPSDTSKNVSGSYPHGPQTNNRYELEAIKHATQMARDVPDSHVRIHTDSKNAKDSVTKWNDNWKSNGYKTSSGQDVKNQDLIRDIDRNVQALKHSGKTVEFEHVRGHSNRMYI	not soluble
MPYVERSNIVGLFGGSFNPPHEGHLLVAKTAIRRLRLNQLWWMVTPGNPLKDCTHLPPLEKRMRLSLELIDDPKIRVTGFEQAIGSKVSVETISHILAHYRRVHFVWIMGADSLATIHHWYRWHDIISMLPIAIIDRPLVHMSALSSSMAHIYRSFRLDERESIRLPFMKPPAWIYLHGALSFQSSTNLRLKENAFF	not soluble
MQALKTKSNIGEMFNIQEKENGEIAISGRELHQALEVSTRYDKWFERMTEYGFENGIDFISQVEKVHGQKRARTYEQVNHILTLDTAKEIAMIQRSEPGKRARQYFIQVEKAWNSPEMIMQRALKIANNTINQLETKIERDKPKIVFADAVATTKTSILVGELAKIIKQNGINIGQRRLFEWLRQNGFLIKRKGVDYNMPTQYSMERELFEIKETSITHSDGHTSISKTPKVTGKGQQYFVNKFLGEKQTS	not soluble
MQAQTVVHPSIKTKTTFAIVVDQKSYDEAKSEIDAYRTSIEKEGLGTYLLIDDWKRPEPIREQLVKLHENEKTPLEGCVFIGDIPIPMIRDAHHLSSAFKRSPKANWQKSSVPSDRYYDDFGLKFDYIKQDSLIPDYHYMTLRADSKQYISPDIYSARIRPLHLEGENRYQMLRDYLKKAVAEKAKQNAFDQLTMARGHGYNSEDPLAWSGEQIALREQLPQIFKSGNTVKFYDFNMRYPMKPLYLNEIQREGLDVMLFHHHGGPTMQYINGYENGSGINLSIENAKIFLRSKVPSYAKKHGREAAIKEYAKQYGVPESWCAEAFDEEKIKSDSIVNRNMDIYTEDIRLLTPNARFILFDACFNGSFHLDDNIVGSYIFNKGKTIATMGCTVNTIQDKWPDEFLGLLAAGMRIGQFTRFTCFLENHLIGDPTFHFTNNAGLDMDINQALVAQEGNVTFWKKQLNSPMADMQAMALRQLSMANYSGLVELLKKSYHESNYFVVRLEALRLLALNYPTEVADVLQTAMNDSYELIRRYAVEYVEKNCNPELLPAWIESYLLRGHENRHRFRIFSAINTFDHDMALNELKKQAADWSFYDSSYVNELLEYLPRQKKGLERDFALIDSPESTTKQIQSEISRFRNKPIAKAIEPLLNIIKNESQEEELRILAAETLGWYNLYYNKADIIKELNTFRTSNQKLMNEVTKTINRLKSQNR	not soluble
MQCSRALALRLILIAPNGTSVKTLLRPRLDESWEQFVRRRLATPIRRQRIACDRTQKEVADIVGVSHHSIQRWELAYVRSRPIAHIVWAQAHDFLLGLELIHALGRTPRRVSRAHHVHSGR	not soluble
MQDGMYQRFLRQHVHPEETGGSDRYCNLMMQRRKMTLYHCKRFNTFIHEDIWNIRSICSTTNIQCKNGKMNCHEGVVKVTDCRDTGSSRAPNCRYRAIASTRRVVIACEGNPQVPVHFDG	soluble
MQDLICYKKMPQWNSQTLPAAFQEKHNTQEGTWAKLTVLKGEMTFSMLTEDGDTLETFHFSEQNQPPFVEPQAWHRIVSFSDDLECQLSFFCSAEDFYHKKYGLTQTHSEVINAVQHIKPGKTLDLGCGGGRNSLYLNLRGFDVTACDKHEQSIDSLNNIIQSEALENIRAGVYNINLAEIKEQYDFILSTVVLMFLERDRIPHIISNMQGSTVDGGYNLIIAAMSTEDCPCPMPFSFTFKEDELKNYYADWEILKYNEDMGELHKTDAQGNRIKLRFATLLARKPLEHHHHHH	soluble
MQDYMQHLPHMQEIKSEILNKVLTQVQSYDESQFSAKDVKNALNQTHLSIEHLKALLSSAAEDFIEELAFKSAKVKQKYFGNSISLFTPLYLSNYCNSKCVYCGFQKGNKIARAKLNEAEIHEEMQAIAKSGLEEILMLTGEGREFASVEYIANACKIAREYFKVVGVEIYPMNEDEYKILHEKGCDYVTVFQETYNPLKYSKIHLAGEKRIFPYRFNAQERALKAGMRGVAFAALLGIDDFRKDALATALHAHFLQQAYSHAEISISVPRLRPIINNAKIHPKDVSEKRLLQVLCAYRLFLPFAGITISSRERIGFRDEVIKLGATKMSAGVSVGIGEHKGEKKGDEQFEISDDRSVDEILAMLKRSNLQAVMSDSIYVG	not soluble
MQELINEYRGALQEVNEVKANLQTKIDAKKRPPQAAGQKRTIQEVPEKAIMSKLNSIIRSLEYSIEWMELGHEPAPRRAIHRRSGLQREVCVTDIETMRQWFVYEHGIAYDFEDNEPKISEWDKIRMEDAMSTMSTQEKKVFLLKHEKNLSYSQISDEMEISVRSVRSYLHRGEEKIQNQIDGSLFCMAI	not soluble
MQETRLMENEYSVNLPTKFWYRGKTYNGFINLVNIFRATMILGTPGSGKSYAIVNQFIKQTIEKSYALYIYDFKFDDLSVIAYNHLLKYRYRYKVPPKFYVINFDNPRKSHRCNPLAPELMTDISDAYESSYTIMLNLNKSWVQKQGDFFVESPIVLFTAIIWFLKIYEGGKFCTFPHAIELLNKRYEDVFTILTSYPDLENYLSPFIDAWKGGASEQLQGQIASAKIPLSRLISPQLYWVMSGSDFTLDINNPKEPKVLCVGNNPDRISIYGAALGLYNSRIVKLINKKKQLKSCVIIDELPTIFFKGLDNLIATARSNKVAVVLGFQDFSQLKRDYGDKEAAVIMSTVGNVFSGQVVGETAKTLSERFGKILQKRESMSINRNDTSTSINTQLDSLIPASKISTLSQGMFVGAVADNFGETIEQKIFHAQIVVDNEAVQKETAAYQPIPEISSFLDENGNDTMEQQIQANYRQIKQDIVELVENELIRIENDPELKYLLNNEM	not soluble
MQFGRHISGQFNVELESIRSQVLTMGGLVEQQLTLAMQALHEDDEKLARRVIADDHKVNAMEVSIDEACTRIIAKRQPTAKDLRLIMAIIKTITDLERIGDSATKMAYIAIERPPAKQHQFQVSLEPLCRQAIAMLHQVLDAFARMDVEAAAEIYKQDDRLDKEYEAVVRQLMTYMMEDPKNIPHILQVIWSARAIERVGDRCQNICEYIIYFVKGKDVRHLGDQGIDDVLKKPSL	not soluble
MQFLQNIPPYLFFTGKGGVGKTSISCATAIRLAEQGKRVLLVSTDPASNVGQVFSQTIGNTIQAIASVPGLSALEIDPQAAAQQYRARIVDPIKGVLPDDVVSSINEQLSGACTTEIAAFDEFTGLLTDASLLTRFDHIIFDTAPTGHTIRLLQLPGAWSSFIDSNPEGASCLGPMAGLEKQREQYAYAVEALSDPKRTRLVLVARLQKSTLQEVARTHLELAAIGLKNQYLVINGVLPKTEAANDTLAAAIWEREQEALANLPADLAGLPTDTLFLQPVNMVGVSALSRLLSTQPVASPSSDEYLQQRPDIPSLSALVDDIARNEHGLIMLMGKGGVGKTTMAAAIAVRLADMGFDVHLTTSDPAAHLSMTLNGSLNNLQVSRIDPHEETERYRQHVLETKGKELDEAGKRLLEEDLRSPCTEEIAVFQAFSRVIREAGKRFVVMDTAPTGHTLLLLDATGAYHREIAKKMGEKGHFTTPMMLLQDPERTKVLLVTLPETTPVLEAANLQADLERAGIHPWGWIINNSLSIADTRSPLLRMRAQQELPQIESVKRQHASRVALVPVLASEPTGIDKLKQLAGHHHHHH	soluble
MQHFSRSVALLALSAGTLTSLPALAADELHYNQISLRAEVSQEVARDLMIVTLYSESQNTDPAKLAAEITTTMNKALDQARQVKDVTLRQGSRNSYPIYDGKGQKITGWRERAELRLESSDFAALSKLTGELLGDLKMGGMDFAIADPTRKASEDALLKDAVKAFKARAQLATEALGGKGYKIVNLNLNSNGYPQPYMRAPMMMKAASMDSAPVTPEVEAGTSQVSMTADGAIEVLMPLEHHHHHH	soluble
MQHKLIAFIGGGNMAQAIILGLLKQGYPAEQIIVNDPNEEKRAFFANLDVATSENNVGSAIKAEVVLLAVKPQMMAEVCSPLSAVDFSDKLLISIAAGISTERLNALIPSVKSIVRVMPNTPALVGEGMAGLFAPKNTSENYRTFAQDLLGAVGRTVWVNDETQMHAVTAASGSSPAYFFLMLEAMQKALIKMNIDEKTARELVQQSMLGAAKMVTENPQIALSTLRENVTSKGGTTAAALAVFDAQHFNQTIEQAMQACLSRSQEMETLF	soluble
MQIGANSLLQEMQSLKGEVTPSFGISPNNIVQQVNNTSGADFGQLLSQAIGNVSGLQSTSSNLATRLDMGDTTVSLSDSVIAREKASVAFEATIQVRNKLVEAYKEIMSMPV	not soluble

— the DeepSol protein solubility set
